What was measured:
[1] = biological target: T1, rTcGAPDH (glyceraldehyde 3-phosphate dehydrogenase) (Trypanosoma cruzi, UniProt P22513 1-359); test: EMSA; supershift with anti-GAPDH serum; 1x from 5x buffer: 20 mM HEPES pH 6.0, 1 mM EDTA, 10 mM (NH4)2SO4, 1 mM DTT, 0.2% Tween 20, 30 mM KCl; 0.1 ug poly-lysine, 1 ug poly[d(I-C)], 20 ul, on ice 15 min; 6% native gel, 0.25x TBE; settings: protein: recombinant; tags: His-tag; chain copies: 4; label: DIG-11-ddUTP at 3' end (terminal transferase); single strand
[2] = biological target: T1, rTcGAPDH (glyceraldehyde 3-phosphate …); test: EMSA; 50 uM GAPDH; 1x from 5x buffer: 20 mM HEPES pH 6.0, 1 mM EDTA, 10 mM (NH4)2SO4, 1 mM DTT, 0.2% Tween 20, 30 mM KCl; 0.1 ug poly-lysine, 1 ug poly[d(I-C)], 20 ul, on ice 15 min; 6% native gel, 0.25x TBE; settings: protein: recombinant; tags: His-tag; chain copies: 4; label: DIG-11-ddUTP at 3' end; single strand

T1 sequence (P22513 whole entry): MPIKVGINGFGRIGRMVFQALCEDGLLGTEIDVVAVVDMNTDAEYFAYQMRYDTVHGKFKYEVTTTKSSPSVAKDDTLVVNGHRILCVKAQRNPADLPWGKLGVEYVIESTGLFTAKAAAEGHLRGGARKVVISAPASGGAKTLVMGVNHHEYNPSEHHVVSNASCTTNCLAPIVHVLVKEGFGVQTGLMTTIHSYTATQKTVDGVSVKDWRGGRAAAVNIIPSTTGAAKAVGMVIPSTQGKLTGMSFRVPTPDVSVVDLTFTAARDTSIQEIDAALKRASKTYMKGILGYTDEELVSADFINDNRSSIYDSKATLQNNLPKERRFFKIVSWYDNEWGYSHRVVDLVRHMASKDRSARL

Binder | binding result [1] | binding result [2]
TTAGGGTTAGGGTTAGGGTTAGGGTTAGGGTTAGGG (ssDNA) [ss (TTAGGG)6] | binds | 
TTAGGGTTAGGGTTAGGG (ssDNA) [ss (TTAGGG)3] |  | binds
TTAGGG (ssDNA) [ss (TTAGGG)1] |  | binds
